Laboratory results as given in patent US20220289837A1, “Cystic Fibrosis Transmembrane Conductance Regulator Stabilizing Agents” (VIB VZW, priority 2019, published 2022).

What was measured:
Assay type in all cases: cell-based
3HA-F508del-CFTR [1] = molecular target: T1, 3HA-F508del-CFTR (Homo sapiens, UniProt P13569, DEL508-508); test: CFTR protein maturation by Western Blot in 3HA-F508del-CFTR HEK-293T cells; settings: for band C (fully glycosylated mature CFTR): FIG. 15, Nb transfected and/or VX-809; for mature CFTR protein band (band C): FIG. 17, Nb transfected and/or VX-661
T1 construct: expressed in transfected cells
T1 sequence (P13569 with tags, fused parts or gaps DEL508-508): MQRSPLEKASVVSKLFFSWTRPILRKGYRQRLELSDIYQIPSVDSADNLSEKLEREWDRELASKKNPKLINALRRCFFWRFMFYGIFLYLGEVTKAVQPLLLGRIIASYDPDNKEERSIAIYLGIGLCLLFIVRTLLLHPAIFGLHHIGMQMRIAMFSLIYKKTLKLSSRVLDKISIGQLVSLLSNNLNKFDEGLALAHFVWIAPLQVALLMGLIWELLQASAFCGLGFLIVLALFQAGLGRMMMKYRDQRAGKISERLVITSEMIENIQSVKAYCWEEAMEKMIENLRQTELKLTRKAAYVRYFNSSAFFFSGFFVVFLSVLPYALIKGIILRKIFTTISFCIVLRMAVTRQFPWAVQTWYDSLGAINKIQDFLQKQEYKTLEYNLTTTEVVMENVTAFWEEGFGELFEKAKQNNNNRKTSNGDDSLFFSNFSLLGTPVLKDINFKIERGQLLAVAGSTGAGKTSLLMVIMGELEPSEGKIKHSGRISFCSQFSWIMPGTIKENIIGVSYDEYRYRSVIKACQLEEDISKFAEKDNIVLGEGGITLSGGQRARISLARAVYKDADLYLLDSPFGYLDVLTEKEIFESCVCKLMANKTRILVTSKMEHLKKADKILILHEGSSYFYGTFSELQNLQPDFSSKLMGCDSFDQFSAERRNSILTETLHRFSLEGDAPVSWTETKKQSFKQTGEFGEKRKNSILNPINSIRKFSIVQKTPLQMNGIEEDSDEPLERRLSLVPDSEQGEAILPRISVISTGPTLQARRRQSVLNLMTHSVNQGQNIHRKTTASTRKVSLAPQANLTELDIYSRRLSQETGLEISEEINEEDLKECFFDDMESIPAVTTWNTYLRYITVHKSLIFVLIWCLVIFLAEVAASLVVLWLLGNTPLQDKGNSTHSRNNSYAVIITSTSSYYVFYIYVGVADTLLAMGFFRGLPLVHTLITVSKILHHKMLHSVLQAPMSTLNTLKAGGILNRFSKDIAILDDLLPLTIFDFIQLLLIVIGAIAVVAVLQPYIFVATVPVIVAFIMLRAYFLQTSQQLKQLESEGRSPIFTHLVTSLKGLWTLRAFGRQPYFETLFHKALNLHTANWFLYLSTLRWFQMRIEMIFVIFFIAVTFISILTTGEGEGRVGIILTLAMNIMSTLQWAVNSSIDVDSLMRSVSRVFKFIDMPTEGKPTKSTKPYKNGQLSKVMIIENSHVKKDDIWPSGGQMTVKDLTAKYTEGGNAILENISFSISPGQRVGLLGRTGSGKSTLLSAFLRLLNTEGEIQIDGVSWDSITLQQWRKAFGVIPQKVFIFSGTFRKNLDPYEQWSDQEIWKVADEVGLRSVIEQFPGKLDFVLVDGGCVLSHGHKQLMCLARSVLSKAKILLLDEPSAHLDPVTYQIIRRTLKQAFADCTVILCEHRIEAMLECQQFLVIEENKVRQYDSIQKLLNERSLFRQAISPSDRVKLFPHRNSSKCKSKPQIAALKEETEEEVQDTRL
Description: (§1) HEK293T cells expressing F508del-CFTR with an engineered extracellular 3HA tag were transiently transfected with the stabilizing Nbs, as well as control Nbs. The effect on F508del mutant CFTR expression and maturation was measured by flow cytometry, Western Blot and fluorescence microscopy. Next, the effect of the transfection of each Nb was measured in the absence or presence of the correctors VX-809 (lumacaftor) or VX-661 (Tezacaftor).
(§2) Stable cell lines were generated by lentiviral transduction as described in (Ensinck, et al. 2020). CFTR variants were cloned to contain a triple hemagglutinin (3HA) tag in the fourth extracellular loop (EC-loop) of CFTR (Sharma, et al. 2004) for maturation and trafficking studies. For HS-YFP quenching studies, double stable cell lines were generated, co-expressing stable HS-YFP (Galietta, et al. 2001).
Cell extracts were separated by SDS-PAGE on 7.5% polyacrylamide gel and transferred to nitrocellulose membrane (Bio-Rad) for immunodetection. After blocking for 1 h with 5% bovine serum albumin (BSA) in Tris-buffered saline added 0.05% Tween-20 (TBST), CFTR was detected using monoclonal antibody mAb 596, IgG2b (CFTR Antibody Distribution Program, dilution 1:46) for 1 h in blocking buffer. Blot was washed 3 times 5 min and incubated with anti-mouse-HRP antibody (Millipore, catalogue number: AP308P, 0.2 μg/ml) for 1 h in TBST. Membrane was washed 3 times for 5 min. CFTR was visualized by chemiluminescence using Luminata Forte Western HRP Substrate (Millipore) and detected with ImageQuant 400 (GE Healthcare).

3HA-F508del-CFTR [2] = molecular target: T1, 3HA-F508del-CFTR; test: Immunostaining of cell-surface expression in F508del-CFTR HEK-293T cells
Description: as §2
For PM staining, cells were blocked with 1% BSA-PBS and incubated with HA.11 antibody (#901515, Biolegend 1:1000) at 4° C. on living cells. Next, cells were fixed (4% PFA) followed by Alexa-488 secondary antibody (#A-11001, Thermo Fischer Scientific, 1:500). Nuclei were stained with DAPI (4′,6-diamidino-2-fenylindole, #D1306, Thermo Fischer Scientific, 1:2000) and sections analyzed by confocal microscopy.

3HA-F508del-CFTR [3] = molecular target: T1, 3HA-F508del-CFTR; test: Cell-surface expression of F508del-CFTR in HEK-293T cells by flow cytometry; settings: extracellular 3HA-tag, Nb transfected and/or VX-809
Description: as §1, §2

Row | Molecule | band C (fully glycosylated mature CFTR) (3HA-F508del-CFTR [1]) | mature CFTR protein band (band C) (3HA-F508del-CFTR [1]) | cell-surface immunostaining (3HA-F508del-CFTR [2]) | cell-surface expression of F508del-CFTR (3HA-F508del-CFTR [3])
1 | T2a: NBD1-specific CFTR-stabilizing nanobody, SEQ ID NO:3, binds epitope 1 (protein, T2a Nanobody amino acid sequence) VHH: QVQLQESGGGLVQAGGSLRLSCAASGSIFRIDAMGWYRQAPGKQRELVAHSTSGGSTDYADSVKGRFTISRDNAKNTVYLQMNSLKPEDTAVYYCNADVRTRWYASNNYWGQGTQVTVSS | detectable | only a minor effect | moderate staining | moderate increase in surface expression
2 | D12: NBD1-specific CFTR-stabilizing nanobody, SEQ ID NO:2, binds epitope 1 (protein, D12 Nanobody amino acid sequence) VHH: QVQLQESGGGLVQAGSSLRLACAATGSIRSINNMGWYRQAPGKQRGMVAIITRVGNTDYADSVKGRFTISRDNAKNTVYLQMNSLKPEDTATYYCHAEITEQSRPFYLTDDYWGQGTQVTVSS | – | – | – | moderate increase in surface expression
3 | G5: NBD1-binding nanobody, SEQ ID NO:5, same binding site as T2a, T27 and D12 (protein, G5 Nanobody amino acid sequence) VHH: QVQLQESGGGLVQAGGSLRLACAATGSIRNINTMGWYRQAPGKQRDMVAFITRAGNTDYADSVKGRFTISRDNARNTVYLRMNSLKPEDTATYYCHAEIAERSRPFYLTDDYWGQGTQVTVSS | – | – | – | moderate increase in surface expression
4 | G3a: non-stabilizing nanobody, SEQ ID NO:50, recognizes the structurally diverse region of NBD1 (protein, G3a Nanobody) VHH: QVQLQESGGGLVQAGGSLRLSCTASGRAFSWYVMGWFRQAPGKEREFVATVSGNGSRRDYADSVKGRFTISRDNAKNTVYLQMNSLKPEDTAVYYCAASSTYYYTDPEKYDYWGQGTQVTVSS | no effect | detectable | – | No effect
5 | T8: nanobody, SEQ ID NO:7, binds epitope 2 including F508, stabilizes WT CFTR but not F508del (protein, T8 Nanobody amino acid sequence) VHH: QVQLQESGGGLVQPGGSLRLSCAASGSTSSINAMGWYRQAPGKQREPVAISSSGGDTRYAEPVKGRFTISRDNAQNKVYLQMNSLKPEDTAVYYCWLNWGRTSVNSWGQGTQVTVSS | no effect | – | – | No effect
